The source of these data is publication PMC11187062.

To fix the notation:
B1: human DPPA3, residues 81–118 (recombinant) [human] / human UHRF1 PHD finger, residues 299–366 [human] (parent)
chain 1: SRRGVRTLLSVQREKMARLRYMLLGGVRTHERRPTNKE
chain 2: GPSCKHCKDDVNRLCRVCACHLCGGRQDPDKQLMCDECDMAFHIYCLDPPLSSVPSEDEWYCPECRND

This assay covers variants of B1. Description: ITC. Particulars: with human UHRF1 PHD finger.
The term Kd denotes the concentration at which binding is half-saturated. On to chain 1 SRRGARTLLSVQREKMARLRYMLLGGVRTHERRPTNKE [chain 1 V5A], for which the Kd came out at 1610 nM.
